# Laboratory results: paper PMC7395175
# B1: HA-tagged zDHHC5 [murine] / human PLM expressed in HEK-derived FT-293 cells [human] (parent)
# chain 1: MPAESGKRFKPSKYVPVSAAAIFLVGATTLFFAFTCPGLSLNVSPAVPIYNAIMFLFVLANFSMATFMDPGIFPRAEEDEDKEDDFRAPLYKTVEIKGIQVRMKWCATCRFYRPPRCSHCSVCDNCVEEFDHHCPWVNNCIGRRNYRYFFLFLLSLTAHIMGVFGFGLLYVLYHIEELSGVRTAVTMAVMCVAGLFFIPVAGLTGFHVVLVARGRTTNEQVTGKFRGGVNPFTNGCCNNVSRVLCSSPAPRYLGRPKKEKTIVIRPPFLRPEVSDGQITVKIMDNGIQGELRRTKSKGSLEITESQSADAEPPPPPKPDLSRYTGLRTHLSLATNEDSSLLGKDSPPTPTMYKYRPGYSSSSTSAAMPHSSSAKLSRGDSLKEPTSIADSSRHPSYRSEPSLEPESFRSPTFGKSFHFDPLSSGSRSSSLKSAQGTGFELGQLQSIRSEGTTSTSYKSLANQTRNGSLSYDSLLTPSDSPDFESVQAGPEPDPPLGYTSPFLSARLAQQREAERHPRLLPTGPPHREPSPVRYDNLSRHIVASLQEREKLLRQSPPLAGREEEPGLGDSGIQSTPGSGHAPRTSSSSDDSKRSPLSKTPLGRPAVPRFGKPDGLRSRGLGSPEPGTTAPYLGRSISYSSQKAPSGVSETEEVALQPLLTPKDEVQLKTTYSKSNGQPKSIGSASPGPGQPPLSSPTRGGVKKVSGVGGTTYEISV
# chain 2: ESPKEHDPFTYDYQSLQIGGLVIAGILFILGILIVLSRRCRCKFNQQQRTGEPDEEEGTFRSSIRRLSTRRR
# Variants of: B1
# Experiment: co-immunoprecipitation (HA IP, Western blot quantified)
# Conditions: with human PLM expressed in HEK-derived FT-293 cells [human]; n = 3; read off a plot
row,response [PLM/HA],Variant
1,0.79,chain 1 C236A C237A
